Measurements reported in PMC10786891, “Massively parallel profiling of RNA-targeting CRISPR-Cas13d”.

T1: EsCas13d, nuclease-dead (Eubacterium siraeum, UniProt B0MS50, R295A;H300A;R849A;H854A)
T1 sequence: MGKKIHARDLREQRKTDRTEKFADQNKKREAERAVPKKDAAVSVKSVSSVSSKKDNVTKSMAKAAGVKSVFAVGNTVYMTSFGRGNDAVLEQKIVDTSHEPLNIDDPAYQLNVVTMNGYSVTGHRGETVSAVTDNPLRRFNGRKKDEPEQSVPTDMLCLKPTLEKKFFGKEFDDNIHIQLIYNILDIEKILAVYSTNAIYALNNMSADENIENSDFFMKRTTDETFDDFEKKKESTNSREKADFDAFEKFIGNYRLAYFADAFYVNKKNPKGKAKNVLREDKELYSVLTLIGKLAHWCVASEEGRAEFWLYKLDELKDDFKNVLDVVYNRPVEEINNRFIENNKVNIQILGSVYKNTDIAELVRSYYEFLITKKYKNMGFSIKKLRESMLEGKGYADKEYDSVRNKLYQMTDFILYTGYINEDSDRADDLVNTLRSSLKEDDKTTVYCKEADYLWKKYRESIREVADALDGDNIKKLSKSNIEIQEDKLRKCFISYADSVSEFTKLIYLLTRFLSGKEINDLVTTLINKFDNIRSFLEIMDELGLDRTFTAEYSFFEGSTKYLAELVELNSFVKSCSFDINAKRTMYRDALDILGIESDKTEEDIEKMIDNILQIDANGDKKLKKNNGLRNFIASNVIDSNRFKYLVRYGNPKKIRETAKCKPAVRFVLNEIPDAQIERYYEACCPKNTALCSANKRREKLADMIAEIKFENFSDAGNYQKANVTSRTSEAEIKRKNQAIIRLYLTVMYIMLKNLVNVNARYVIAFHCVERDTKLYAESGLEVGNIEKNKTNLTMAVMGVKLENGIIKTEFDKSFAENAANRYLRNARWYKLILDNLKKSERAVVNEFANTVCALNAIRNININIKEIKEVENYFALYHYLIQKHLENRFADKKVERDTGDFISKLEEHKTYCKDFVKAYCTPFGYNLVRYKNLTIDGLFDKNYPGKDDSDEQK

B1: target 1 MT 5'PFS GAA 3'PFS CUU (mixed)
RNA 1: CACCCGUGCAAAAAUGCAGGGGUCUAAAACUGAGCGGAUAACCUCUCUAUGG
RNA 2: GGGAAUGGAUCCACAUCUACGAAUUCGAACCAUAGAGAGGUUAUCCGCUCACUUAGAUCGGAAGAGCACACGU
B2: target 1 MT 5'PFS CUU 3'PFS AAC (mixed)
RNA 1: CACCCGUGCAAAAAUGCAGGGGUCUAAAACUGAGCGGAUAACCUCUCUAUGG
RNA 2: GGGAAUGGAUCCACAUCUACGAAUUCCUUCCAUAGAGAGGUUAUCCGCUCAAACAGAUCGGAAGAGCACACGU
B3: target 1 del2 (mixed)
RNA 1: CACCCGUGCAAAAAUGCAGGGGUCUAAAACUGAGCGGAUAACCUCUCUAUGG
RNA 2: GGGAAUGGAUCCACAUCUACGAAUUCGUACCAUAGAGAGGUUAUCCGCUACCGAGAUCGGAAGAGCACACGU
B4: target 1 MT 5'PFS GGG 3'PFS AAU (mixed)
RNA 1: CACCCGUGCAAAAAUGCAGGGGUCUAAAACUGAGCGGAUAACCUCUCUAUGG
RNA 2: GGGAAUGGAUCCACAUCUACGAAUUCGGGCCAUAGAGAGGUUAUCCGCUCAAAUAGAUCGGAAGAGCACACGU
B5: target 1 MT 5'PFS GAA 3'PFS CUA (mixed)
RNA 1: CACCCGUGCAAAAAUGCAGGGGUCUAAAACUGAGCGGAUAACCUCUCUAUGG
RNA 2: GGGAAUGGAUCCACAUCUACGAAUUCGAACCAUAGAGAGGUUAUCCGCUCACUAAGAUCGGAAGAGCACACGU
B6: target 1 MT 5'PFS GGG 3'PFS ACA (mixed)
RNA 1: CACCCGUGCAAAAAUGCAGGGGUCUAAAACUGAGCGGAUAACCUCUCUAUGG
RNA 2: GGGAAUGGAUCCACAUCUACGAAUUCGGGCCAUAGAGAGGUUAUCCGCUCAACAAGAUCGGAAGAGCACACGU
B7: target 1 MT 5'PFS AAA 3'PFS UGU (mixed)
RNA 1: CACCCGUGCAAAAAUGCAGGGGUCUAAAACUGAGCGGAUAACCUCUCUAUGG
RNA 2: GGGAAUGGAUCCACAUCUACGAAUUCAAACCAUAGAGAGGUUAUCCGCUCAUGUAGAUCGGAAGAGCACACGU
B8: target 1 MT 5'PFS AAA 3'PFS UGA (mixed)
RNA 1: CACCCGUGCAAAAAUGCAGGGGUCUAAAACUGAGCGGAUAACCUCUCUAUGG
RNA 2: GGGAAUGGAUCCACAUCUACGAAUUCAAACCAUAGAGAGGUUAUCCGCUCAUGAAGAUCGGAAGAGCACACGU
B9: target 1 MT 5'PFS GAC 3'PFS CGC (mixed)
RNA 1: CACCCGUGCAAAAAUGCAGGGGUCUAAAACUGAGCGGAUAACCUCUCUAUGG
RNA 2: GGGAAUGGAUCCACAUCUACGAAUUCGACCCAUAGAGAGGUUAUCCGCUCACGCAGAUCGGAAGAGCACACGU
B10: target 1 MT 5'PFS UCG 3'PFS AAA (mixed)
RNA 1: CACCCGUGCAAAAAUGCAGGGGUCUAAAACUGAGCGGAUAACCUCUCUAUGG
RNA 2: GGGAAUGGAUCCACAUCUACGAAUUCUCGCCAUAGAGAGGUUAUCCGCUCAAAAAGAUCGGAAGAGCACACGU
B11: target 1 MT 5'PFS GGC 3'PFS UGA (mixed)
RNA 1: CACCCGUGCAAAAAUGCAGGGGUCUAAAACUGAGCGGAUAACCUCUCUAUGG
RNA 2: GGGAAUGGAUCCACAUCUACGAAUUCGGCCCAUAGAGAGGUUAUCCGCUCAUGAAGAUCGGAAGAGCACACGU
B12: target 1 MT 5'PFS UCC 3'PFS ACU (mixed)
RNA 1: CACCCGUGCAAAAAUGCAGGGGUCUAAAACUGAGCGGAUAACCUCUCUAUGG
RNA 2: GGGAAUGGAUCCACAUCUACGAAUUCUCCCCAUAGAGAGGUUAUCCGCUCAACUAGAUCGGAAGAGCACACGU
B13: target 1 MT 5'PFS ACA 3'PFS AGG (mixed)
RNA 1: CACCCGUGCAAAAAUGCAGGGGUCUAAAACUGAGCGGAUAACCUCUCUAUGG
RNA 2: GGGAAUGGAUCCACAUCUACGAAUUCACACCAUAGAGAGGUUAUCCGCUCAAGGAGAUCGGAAGAGCACACGU
B14: target 1 MT 5'PFS UUG 3'PFS CCU (mixed)
RNA 1: CACCCGUGCAAAAAUGCAGGGGUCUAAAACUGAGCGGAUAACCUCUCUAUGG
RNA 2: GGGAAUGGAUCCACAUCUACGAAUUCUUGCCAUAGAGAGGUUAUCCGCUCACCUAGAUCGGAAGAGCACACGU
B15: target 1 MT 5'PFS UUG 3'PFS AAC (mixed)
RNA 1: CACCCGUGCAAAAAUGCAGGGGUCUAAAACUGAGCGGAUAACCUCUCUAUGG
RNA 2: GGGAAUGGAUCCACAUCUACGAAUUCUUGCCAUAGAGAGGUUAUCCGCUCAAACAGAUCGGAAGAGCACACGU
B16: target 1 MT 5'PFS CCU 3'PFS UCC (mixed)
RNA 1: CACCCGUGCAAAAAUGCAGGGGUCUAAAACUGAGCGGAUAACCUCUCUAUGG
RNA 2: GGGAAUGGAUCCACAUCUACGAAUUCCCUCCAUAGAGAGGUUAUCCGCUCAUCCAGAUCGGAAGAGCACACGU
B17: target 1 MT 5'PFS GGC 3'PFS UGU (mixed)
RNA 1: CACCCGUGCAAAAAUGCAGGGGUCUAAAACUGAGCGGAUAACCUCUCUAUGG
RNA 2: GGGAAUGGAUCCACAUCUACGAAUUCGGCCCAUAGAGAGGUUAUCCGCUCAUGUAGAUCGGAAGAGCACACGU
B18: target 1 MT 5'PFS UCC 3'PFS ACG (mixed)
RNA 1: CACCCGUGCAAAAAUGCAGGGGUCUAAAACUGAGCGGAUAACCUCUCUAUGG
RNA 2: GGGAAUGGAUCCACAUCUACGAAUUCUCCCCAUAGAGAGGUUAUCCGCUCAACGAGAUCGGAAGAGCACACGU
B19: target 1 MT 5'PFS GAC 3'PFS CGA (mixed)
RNA 1: CACCCGUGCAAAAAUGCAGGGGUCUAAAACUGAGCGGAUAACCUCUCUAUGG
RNA 2: GGGAAUGGAUCCACAUCUACGAAUUCGACCCAUAGAGAGGUUAUCCGCUCACGAAGAUCGGAAGAGCACACGU
B20: target 1 MT 5'PFS UCG 3'PFS AAU (mixed)
RNA 1: CACCCGUGCAAAAAUGCAGGGGUCUAAAACUGAGCGGAUAACCUCUCUAUGG
RNA 2: GGGAAUGGAUCCACAUCUACGAAUUCUCGCCAUAGAGAGGUUAUCCGCUCAAAUAGAUCGGAAGAGCACACGU
B21: target 1 MT 5'PFS GGG 3'PFS ACG (mixed)
RNA 1: CACCCGUGCAAAAAUGCAGGGGUCUAAAACUGAGCGGAUAACCUCUCUAUGG
RNA 2: GGGAAUGGAUCCACAUCUACGAAUUCGGGCCAUAGAGAGGUUAUCCGCUCAACGAGAUCGGAAGAGCACACGU
B22: target 1 insC 3' of 20,insU 3' of 2 (mixed)
RNA 1: CACCCGUGCAAAAAUGCAGGGGUCUAAAACUGAGCGGAUAACCUCUCUAUGG
RNA 2: GGGAAUGGAUCCACAUCUACGAAUUCGUACCACUAGAGAGGUUAUCCGCUCUACCGAGAUCGGAAGAGCACACGU
B23: target 1 MT 5'PFS CCU 3'PFS UCG (mixed)
RNA 1: CACCCGUGCAAAAAUGCAGGGGUCUAAAACUGAGCGGAUAACCUCUCUAUGG
RNA 2: GGGAAUGGAUCCACAUCUACGAAUUCCCUCCAUAGAGAGGUUAUCCGCUCAUCGAGAUCGGAAGAGCACACGU
B24: target 1 MT 5'PFS UUG 3'PFS AAU (mixed)
RNA 1: CACCCGUGCAAAAAUGCAGGGGUCUAAAACUGAGCGGAUAACCUCUCUAUGG
RNA 2: GGGAAUGGAUCCACAUCUACGAAUUCUUGCCAUAGAGAGGUUAUCCGCUCAAAUAGAUCGGAAGAGCACACGU
B25: target 1 MT 5'PFS CUU 3'PFS AAU (mixed)
RNA 1: CACCCGUGCAAAAAUGCAGGGGUCUAAAACUGAGCGGAUAACCUCUCUAUGG
RNA 2: GGGAAUGGAUCCACAUCUACGAAUUCCUUCCAUAGAGAGGUUAUCCGCUCAAAUAGAUCGGAAGAGCACACGU
B26: target 1 MT 5'PFS GAC 3'PFS CGG (mixed)
RNA 1: CACCCGUGCAAAAAUGCAGGGGUCUAAAACUGAGCGGAUAACCUCUCUAUGG
RNA 2: GGGAAUGGAUCCACAUCUACGAAUUCGACCCAUAGAGAGGUUAUCCGCUCACGGAGAUCGGAAGAGCACACGU
B27: target 1 MT 5'PFS GGC 3'PFS UGG (mixed)
RNA 1: CACCCGUGCAAAAAUGCAGGGGUCUAAAACUGAGCGGAUAACCUCUCUAUGG
RNA 2: GGGAAUGGAUCCACAUCUACGAAUUCGGCCCAUAGAGAGGUUAUCCGCUCAUGGAGAUCGGAAGAGCACACGU
B28: target 1 MT 5'PFS GCU 3'PFS UAU (mixed)
RNA 1: CACCCGUGCAAAAAUGCAGGGGUCUAAAACUGAGCGGAUAACCUCUCUAUGG
RNA 2: GGGAAUGGAUCCACAUCUACGAAUUCGCUCCAUAGAGAGGUUAUCCGCUCAUAUAGAUCGGAAGAGCACACGU

Target: T1, EsCas13d, nuclease-dead
Test: crRNA (strand 1, pre-loaded); Mg2+; 40 mM Tris-HCl pH 7.5, 150 mM NaCl, 6 mM MgCl2, 1 mM DTT, 0.1% Tween-20, 0.2 mg/ml BSA; 25 C; 10 min per concentration, then washed
Conditions: tags: His6-TwinStrep-SUMO cleaved; N-terminal SNAP kept (SNAP-Surface 488); label: 3' end held by stalled T7 RNA polymerase

Which Kd does the source give for B1 here?
Its Kd is 18.5 ± 7.5 nM.

With B2 as the binder, how does the Kd read?
The Kd was 41 ± 17.5 nM.

Which Kd does the source give for B3 here?
The Kd was 33 ± 4 nM.

For B4, which Kd is on record?
Its Kd is 28 ± 4.5 nM.

B5 was tested. Which Kd did it give?
The Kd was about 40 nM.

How did the Kd turn out when B6 was run?
Its Kd is 28.5 ± 6.5 nM.

B7 was tested. Which Kd did it give?
The Kd was 40.5 ± 14.5 nM.

B8 was tested. Which Kd did it give?
Its Kd is 20.1 ± 3.45 nM.

B9 was tested. Which Kd did it give?
Its Kd is 48.5 ± 14 nM.

B10 was tested. Which Kd did it give?
Its Kd is 23 ± 8 nM.

How did the Kd turn out when B11 was run?
The Kd was 11.7 ± 1.45 nM.

Which Kd does the source give for B12 here?
Its Kd is 14 ± 5 nM.

B13 was tested. Which Kd did it give?
Its Kd is about 46 nM.

B14 was tested. Which Kd did it give?
The Kd was 19.6 ± 4.1 nM.

With B15 as the binder, how does the Kd read?
The Kd was about 41.5 nM.

Which Kd does the source give for B16 here?
Its Kd is 14 ± 5 nM.

For B17, which Kd is on record?
Its Kd is 16.1 ± 2.25 nM.

For B18, which Kd is on record?
Its Kd is about 71.5 nM.

Which Kd does the source give for B19 here?
The Kd was about 20 nM.

Which Kd does the source give for B20 here?
The Kd was 30 ± 11 nM.

With B21 as the binder, how does the Kd read?
The Kd was 17.5 ± 1.85 nM.

How did the Kd turn out when B22 was run?
The Kd was 14.7 ± 1 nM.

How did the Kd turn out when B23 was run?
Its Kd is 14.2 ± 4.1 nM.

How did the Kd turn out when B24 was run?
Its Kd is 22.5 ± 4.25 nM.

With B25 as the binder, how does the Kd read?
Its Kd is 58 ± 27 nM.

Which Kd does the source give for B26 here?
Its Kd is about 35 nM.

How did the Kd turn out when B27 was run?
Its Kd is about 60 nM.

With B28 as the binder, how does the Kd read?
The Kd was 73 ± 28 nM.
